The results in this text go back to the nanobody polyreactivity screen of Harvey et al. (2022).

The data set can be described thus: yeast display, Sf9 membrane polyspecificity reagent, FACS + sequencing; frameworks hold sequencing errors. The method in brief: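 In a synthetic yeast display library (Saccharomyces cerevisiae BJ5465), nanobody expression was induced with galactose for 36–48 hours. FACS gates were set low and high (top ~1%) using anti-HA fluorescence for expression and streptavidin fluorescence for binding of the Sf9 membrane reagent. Each polyreactivity label is drawn from the gate of origin.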
Take “QVHLVESGGGLVQAGGSLRLSCAASGSIFYSYAMGWYRQAPGKERELVASINWSGASTYYADSVKGRFTISRDNAKNTVYLQMNSLKPEDTAVYYCAADWWGYDGRYDYWGQGTQVTVSS”: the “polyreactivity (PSR sort gate)” value is recorded as “high polyreactivity”. For the sequence “QVHLVESGGGLVQAGGSLRLSCAASGSIFYWNAMGWYRQAPGKESELVATISSRGGRTSYADSVKGRFTLSRDNAKNTVYLQMNSLQPEDTAVDYCAKSIDGWYWRRRRYDYWGQGTQVTVSS”, the “polyreactivity (PSR sort gate)” value is given as “low polyreactivity”.

As for “QVHLVESGGGLVQAGGSLRLSCAASGSILVWYAMGWYRHAPGKERELVAAISQSGGRTYYADSVKGRFTISRDNAKNNVYLQMNSLKPEDTAVYYGAAFYTSYWGYDYDYWGQGTQVTVSS”, the “polyreactivity (PSR sort gate)” value is listed as “low polyreactivity”. Then “QVHLVESGGGLVQAGGSLRLSCAASGSIYLITAMGWYRQAPGKERELVAAISSRGTSTYYADSVKGRFTISRDNAKNTVYFQMNSLKAEDTAVYYCAARAIRANGYDYWGQCTQVTVSS”, with “high polyreactivity”; and “QVHLVESGGGLVQAGGSLRLSCAASGSTFAKNAMGWYRQAPGKERELVAAITRSAGSTYYADSVKGRFTISRDNAKNTVYLQMNSLKPEDTAVYYCDRRVSGTPWYGYWGQGTQVTVSS”, with “high polyreactivity”. Then “QVHLVESGGGLVQAGGSLRLSCAASGSTFAPNAMGWYRQAPGKERELVASIRRGGSTHYADSVKGRFTISRDNAKNSVYLQMNSLKPEDTAVYYCATDQDPCSWYRYDYWGQGTQVTVSS”, with “low polyreactivity”; and “QVHLVESGGGLVQAGGSLRLSCAASGSTFDDYVMGWYRQAPGKESELVAAITRSGTSTYYADSVKGRFTISRDNAKNTVYLQMNSLKPEETAVYYCAAGPFGLKPYTLGYNYWGQGTQVTVSS”, with “high polyreactivity”. The value for “QVHLVESGGGLVQAGGSLRLSCAASGSTFGVYAMGWYRQAPAKERELVAAISSSTGSTYYADSVKGRFTISRDNEKNTVYLQMNSLKPEDTAVYFCAAAGYGKVRGDYWGQGSQVTVSS” was “low polyreactivity”; that for “QVHLVESGGGLVQAGGSLRLSCAASGSTFGYYAMGWYRQAPGKEREFVAAISSSGGSTYYADSVKGRFTISRDNAKNTVYLQMNSLKPEDTAVYYCARVGFPGFYWGQGTQVTVSS” was “high polyreactivity”. As to “QVHLVESGGGLVQAGGSLRLSCAASGSTFRFYAMGWYRQAPGKERELVATISRTGSTNYADSVKGRFTISRDNAKNTVYLQMNSLKPEDTAVYYCAAQRRRYPGYVQDDYWGQGTQVTVSS”, the “polyreactivity (PSR sort gate)” value was “high polyreactivity”.

For “QVHLVESGGGLVQAGGSLRLSCAASGSTFRSNAMGWYRQAPGKERELVASITSRGGSTYYADSVKGRFTISRDNAKNTVYLQMNSLKPEDTAVYYCATARSYLTYSYHYDYWGQGTQVTVSS”, the “polyreactivity (PSR sort gate)” value is “low polyreactivity”. The value for “QVHLVESGGGLVQAGGSLRLSCAASGSTFSGNGMGWYRQAPGKERELVAAINWYGGTTYYADSVKGRFTISRDNAKNTVYLQMNSLKQEDTAVYYCARESTLTYYSDDFDYWGQGTQVTVSS” was “low polyreactivity”; that for “QVHLVESGGGLVQAGGSLRLSCAASGSTFVANTMRWSRQAPGKERELVASITSGDSTNYADSVKGRFTISRDNAKNTVYLQMNSLKPEDTAVYYCSAETVWYYVGGQLIYYSWGQGTQVTVSS” was “low polyreactivity”.

In the case of “QVHLVESGGGLVQAGGSLRLSCAASGSTFYNNAMGWYRQAPGKERELVAAINYSGGSTNYADSVKGRFTISRDNAKNTVYLQMNILKPEDTAVYYCATDLHWLVTKYGYWGQGTQVTVSS”, the “polyreactivity (PSR sort gate)” value is “low polyreactivity”. The value for “QVHLVESGGGLVQAGGSLRLSCAASGSTFYYTAMGWYRQPPGKESELVAAISRGGGSTYYADSVKGRFTISRDNAKNTVYVQMNSLKPEDTAVYYCAARRVGGGFYTWRNPAYEYWGQGTQVTVSS” was “high polyreactivity”; that for “QVHLVESGGGLVQAGGSLRLSCAASGSTIFLYMGWYRQAPGKERELVAAITVSGGSTYYADSVKGRFTISRDNAKNTVYLQMNSLKPEDTAVYYCNADWVLRYDYWGLGTQVTVSS” was “low polyreactivity”; that for “QVHLVESGGGLVQAGGSLRLSCAASGSTLGRYAMGWYRQAPGKERELVAAISWRGGSTYYADSVKGRFTISRDNAKNTDYLQMHSLKPEDTAVYYCADTYRFSEYYYWGQGTQVTVSS” was “high polyreactivity”. Then “QVHLVESGGGLVQAGGSLRLSCAASGSTLSFYAMGWYRQAPGKERELVAAISYSTGTTYYADSVKGRFTISRDNAKNTVYLQMNSLKPEDSAVYYCAARWVWLHSRYDYWGQGTQVTVSS”, with “high polyreactivity”. Then “QVHLVESGGGLVQAGGSLRLSCAASGSTLVTNAIGWYRQAPGKERELVAAITFSGGTTYYADSVKGRFTISRDNAKNTVYLQLNSLKPEDTAVYYCAAENWLEYVGYDFWGQGTHVTVSS”, with “high polyreactivity”; and “QVHLVESGGGLVQAGGSLRLSCAASGSTNYYAMGRYRQAPGKEREFVSAISRDASSTYYADSVKGRFTISRDNAKNTVYLQMNSLKPEDTAVYYCAARIIRFSTSADKLVTSRYYYWGQGTQVTVSS”, with “high polyreactivity”; and “QVHLVESGGGLVQAGGSLRLSCAASVRTFYRNAMGWYRQAPGKERELVAAITRSGSTNYADSVKGRFTISRDNAKNTVYLQMNSLKPEDTAVYYCAAKFFRNTYSYGMDYWGQGTQVTVSS”, with “high polyreactivity”. Take “QVHLVESGGGLVQAGGSLRLSCAATGRTFAGYAMGWYRQAPGKERQLVAAITNGGSTKYADSVKGRFTISRDNAKNSVYLQMNSLKPEDTAVYYCKARKRFYSGNTLMYYWGQGTQVTVSS”: the “polyreactivity (PSR sort gate)” value was “high polyreactivity”. Turning to “QVHLVESGGGLVQAGGSLRLSCAATGSTFPFYTMGWYRQAPGKERELVASISVKGDTTYYADSVKGRFTISRDNAKNTVYLQMNSLKPDDTAVYYCATGPYIWQEWSPGFEYWGQGTQVTVSS”, the “polyreactivity (PSR sort gate)” value was “low polyreactivity”. Consider “QVHLVESGGGLVQAGGSLRLSCAAYGFIFYPYAMGWNRQEPGKERELVAAIDWNGGGTYYADSVKGRFTISRDNAKNTVYLQMNSLKPEDTAVYYCNTYGAYTFDYWGQGTQVTVSS”, for which the “polyreactivity (PSR sort gate)” value is recorded as “high polyreactivity”. Then “QVHLVESGGGLVQAGGSLRLSCADSGLTFVFYAMGWYRPAPGKERELVAAISWSTGRTYYPDSVKGRFTISRDTAKNTVYLQMNSLNPEDSAVYYCAASYLGRKYVYWGQGTQVTVSS”, with “high polyreactivity”. The value for “QVHLVESGGGLVQAGGSLRLSCADSGRIILDYAMGWYRQAPGKERELVAAITWGGGSTNYADSVKGRFTNSRDNAKNTVYLQMNRLKPEDTAVYYCNADPHDQYDYWGKGTQVTVSS” was “low polyreactivity”; that for “QVHLVESGGGLVQAGGSLRLSCADSGSTFTSYAMGWYRQAPGKERDLVAAINYSGGSTYYADSVKGRFTISRDNAKNTVYLQMNSLKPEDTAVYYCAADGYIRQYVTYYYWGKGTQVTVSS” was “low polyreactivity”; that for “QVHLVESGGGLVQAGGSLRLSCAPSGFTFGYNAMGWYRQAPGKERELVAAISYRDGSTYYADSVKGRFTISRDTAKNTVYLQMNSLKPEDTAVYYCAAEVWYPGWGYDYWGQGTQVTVSS” was “high polyreactivity”. Then “QVHLVESGGGLVQAGGSLRLSCASSGSIFRWYAMGWYRPAPGKERELVAAISTSGGNTYYADSVKGRFTISRDNAKNTVYLQMNSLKPEDTAVYYCNALWYRSLSYRYDYWGQGTQVTVSS”, with “high polyreactivity”; and “QVHLVESGGGLVQAGGSLRLSCASSGSTFGYYAMGWYRQAPGKERELVAAITGRGGSTYYADSVKGRFTISRDNAKNTVYLQLISLKQEDTAVYYCAVGKYRLYYSGAYGYWGQGTQVTVSS”, with “high polyreactivity”; and “QVHLVESGGGLVQAGGSLRLSCASSGSTFRSYGMGWYRPAPGKERELVAAISSSGGSTYYADSVKGRFTISRDNAKNTVYLQMNSLKPEDSAVYYCAAGSRLVSARLYYWGQGTQVTVSS”, with “high polyreactivity”.

“QVHLVESGGGLVQAGGSLRLSCDASGRLIARYAMGWHRPAPGKERELVAAISSGGRTYYADSVKGRFTISRDNAKNTVYLQMNSLKPEDTAVYYCAASSGGATRGHDYWGQGTQVTVSS”: the “polyreactivity (PSR sort gate)” value is recorded as “high polyreactivity”. For “QVHLVESGGGLVQAGGSLRLSCDASGSTFYCYAMGWYRQAPGKERELVASISWSGGRSYYADSVKGRFTISRDNAKNTDYLQMNSLYPEDTAVYYCAARRKGRYDYWGQGTQVTVSS”, the “polyreactivity (PSR sort gate)” value is “high polyreactivity”. Then “QVHLVESGGGLVQAGGSLRLSCPASGSTIRNYAMGLYRQAPGKERELVAAITKRGGTTYYADSVKGRFTISRDNAKNTVYLQMNSLKPEDTAVYYCAIGYNSSPFDYWGQGTQVTVSS”, with “high polyreactivity”; and “QVHLVESGGGLVQAGGSLRLSCSASGIIFYVYTMGWYRQARGKERELVAAISGSGGSTTYADSVKGRFTISRDNAKNTVYLQMNSLKPEDTAVYYCNAKKWFYRWCKFSEFDYWGQGTQVTVSS”, with “high polyreactivity”.

For the sequence “QVHLVESGGGLVQAGGSLRLSCSASGSIFAINVMGWYRQAPGKEREFVAAITWSGGSTYYADSVKGRVTISRDNAKNTVYLQMFSLKPEDTAVYYCNARYPYKRRDYDYWGQGTQVTVSS”, the “polyreactivity (PSR sort gate)” value is given as “high polyreactivity”. Then “QVHLVESGGGLVQAGGSLRLSCSASGSTFFPYAMGWYRQAPGKERELVAAITSGGRTKYADSVKGRFTISRDNAKNTVYLQMNSLKPEDNAVYYCAARGLIKEYGGPYRRFGYWGQGTKVTVSS”, with “high polyreactivity”; and “QVHLVESGGGLVQAGGSLRLSFAASRSIFSKYVMGWYRQAPGKERELVASITSGGRTNYADSVKGRFTISRDNAKNTVYLQMNSLKPEDTAVYYCAARAFKTWYRSGVDYWGQGTQVTVSS”, with “low polyreactivity”. The value for “QVHLVESGGGLVQAGGSLRLSSAASGITFDDYAMGWYRQAPGKERELVAAISVSGGDTYYADSVKGRFTISRDNAKNTVYLQMNSLKPEVTAVYYCAAEVVSPRWYDYWGQGTQLTVSS” was “low polyreactivity”; that for “QVHLVESGGGLVQAGGSLRLSSAASGSIFQYNAMGWYRQAPGKERELVAGITTGGDTNYADSVKGRFTISRDNAKNTVYLHMNSLKPEDTAVYYCAARFGQWVSAYDYWGQGTQVTVSS” was “low polyreactivity”; that for “QVHLVESGGGLVQAGGSLRLTCAASGIIFLRYAIGWYRQAPGKERDLVAAITRGGITYYADSVKGRFTISRDNAKNTVYLQMNSLKPEDTAVYYCAATYSGNYSMCRGYDYWGQGTQVTVSS” was “low polyreactivity”.
